The supplement of paper PMC9732359
± gives the uncertainty stated by the source.

Assay: protein stability index of a GFP-peptide fusion (yeast GPS) (PSI 1-4); higher = more stable; sorted into four equal gates, so the index is relative within each strain
Outline: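 Plasmids isolated from each sorting gate were PCR-amplified and Illumina-sequenced, and barcodes assigned the reads to strains. The gates, four of equal size, were set by GFP/Cherry fluorescence ratio on mid-log cultures in leucine-free medium. These cultures were yeast carrying a pooled library of tiled 17-residue yeast protein peptides fused downstream of GFP on a plasmid that also expresses Cherry. The protein stability index is the sum of every gate's read frequency times its gate number.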

Sequence | protein stability index (doa10∆) | protein stability index (pdr5∆) | protein stability index (san1∆) | protein stability index (ubr1∆)
QFGNACISLSGVPNYLV [SSN2] | 1.59 ± 0.077 | 2.05 ± 0.093 | 2.37 ± 0.21 | 2.21 ± 0.069
NAKDIQIPVYDTFDGSD [FAS1] | 2.47 ± 0.078 | 2.56 ± 0.07 | 2.07 ± 0.052 | 2.29 ± 0.064
TDLHLPKKEYDDDAVRR [NSL1] | 1.99 ± 0.13 | 2.25 ± 0.12 | 1.42 ± 0.24 | 3.13 ± 0.11
SMTAVPKPLKFLRPTYP [RPN1] | 2.33 ± 0.058 | 2.21 ± 0.064 | 1.85 ± 0.069 | 2.47 ± 0.064
KDLDGWQVIITDDQGRV [SIR3] | 3.15 ± 0.093 | 3.03 ± 0.077 | 3.21 ± 0.068 | 3.35 ± 0.064
LSLHENYPQDEINAVFN [POP1] | 2.97 ± 0.067 | 3.11 ± 0.056 | 3.05 ± 0.04 | 3 ± 0.059
PPLTYKNDTKILVLALE [PRP8] | 2.58 ± 0.057 | 2.48 ± 0.043 | 2.52 ± 0.055 | 2.04 ± 0.029
GPSVESYELRNTTTYKS [SNF5] | 2.75 ± 0.1 | 2.9 ± 0.099 | 2.41 ± 0.094 | 1.99 ± 0.082
NLLKDEGVTPGRIRTTR [SSN3] | 3.1 ± 0.26 | 2.87 ± 0.23 | 3.26 ± 0.12 | 
PSKSQTNFKEEITDASL [YML103C/NUP188] | 2.93 ± 0.15 | 3.13 ± 0.11 | 3.02 ± 0.18 | 2.92 ± 0.18
NLDAAAAGTSQARTATL [RPC10] | 2.65 ± 0.17 | 3.15 ± 0.15 | 2.73 ± 0.1 | 2.86 ± 0.096
KDIRSTLASLIRYNSVE [RPC82] | 2.67 ± 0.14 | 2.13 ± 0.086 | 2.67 ± 0.12 | 2.45 ± 0.11
KDFVTMAIEIINDIRDD [YCG1] | 1.85 ± 0.12 | 1.7 ± 0.16 | 2.17 ± 0.2 | 2.42 ± 0.19
VDQEMLYEIILAANYLN [SKP1] | 1.63 ± 0.051 | 1.72 ± 0.05 | 1.92 ± 0.093 | 1.84 ± 0.057
LNSNNSIIGNKNNNYTW [REC8] | 2.86 ± 0.14 | 2.76 ± 0.1 | 2.87 ± 0.07 | 2.41 ± 0.072
FNFFEPIKEAKIKHGSV [YMR129W/POM152] | 2.7 ± 0.054 | 2.89 ± 0.056 | 2.54 ± 0.065 | 2.83 ± 0.046
QMQQQQQAQAQAQAQAQ [GAL11] | 2.1 ± 0.074 | 2.08 ± 0.053 | 2.19 ± 0.059 | 1.97 ± 0.057
MKYIQTEQQIEVPEGVT [RPL9A] | 2.54 ± 0.089 | 2.75 ± 0.082 | 2.83 ± 0.11 | 2.77 ± 0.053
EASKKSAVKPRPLKLER [FAS1] | 3.1 ± 0.15 | 3.16 ± 0.13 | 2.88 ± 0.17 | 3.05 ± 0.11
IPLGKNVVVKWQGKPVF [RIP1] | 3.36 ± 0.26 |  | 3.42 ± 0.07 | 2.96 ± 0.26
GIVSVSDPQMKVFDTLT [RPN1] | 2.81 ± 0.16 | 2.93 ± 0.12 | 2.87 ± 0.16 | 2.82 ± 0.13
RDEIAKNTELSYDFLPL [RPN12] | 1.54 ± 0.062 | 2.23 ± 0.072 | 1.82 ± 0.079 | 2.32 ± 0.05
LISIHSRENNSEYMVFG [YJL039C/NUP192] | 3.03 ± 0.11 | 2.25 ± 0.13 | 2.77 ± 0.1 | 3.15 ± 0.19
NCFFDVIVPQIVLDEVR [DIS3] | 1.62 ± 0.12 | 1.55 ± 0.17 |  | 1.47 ± 0.12
FLQSQRQQQQRSILQSL [SWI1] | 1.8 ± 0.062 | 1.92 ± 0.073 | 1.41 ± 0.087 | 1.55 ± 0.054
ILDPSTEYCVGDYVAYQ [YMR129W/POM152] | 2.83 ± 0.19 | 3.63 ± 0.18 | 2.47 ± 0.21 | 
HDNHGNKLGNKRLTEDE [CDC53] | 2.51 ± 0.091 | 2.84 ± 0.069 | 2.37 ± 0.052 | 3.17 ± 0.06

Sequence | protein stability index (doa10∆) | protein stability index (pdr5∆) | protein stability index (san1∆) | protein stability index (ubr1∆)
KCLNYRNVNWIERLTKR [ITC1] | 2.91 ± 0.084 | 3.07 ± 0.052 | 2.96 ± 0.05 | 3.09 ± 0.038
DFNEIVQYLSGAHGNSD [POP3] | 1.24 ± 0.096 | 1.22 ± 0.14 | 1.18 ± 0.21 | 1.28 ± 0.11
PHLIIQNHNSKSTDNSA [IRR1] | 2.71 ± 0.047 | 2.88 ± 0.057 | 2.81 ± 0.05 | 2.78 ± 0.034
IDLDNDEDDDEDVTDQE [DLS1] | 3.21 ± 0.12 | 2.89 ± 0.16 | 2.86 ± 0.083 | 3.17 ± 0.15
NSLLSNFNDIPPSVTLQ [YDL088C/ASM4] | 2.63 ± 0.081 | 1.98 ± 0.072 | 2.04 ± 0.11 | 2.72 ± 0.11
QKKARTILQHLSEAWRC [PRP8] | 1.96 ± 0.11 | 1.8 ± 0.097 | 2.28 ± 0.12 | 2.55 ± 0.16
DLWNNFGNIMDNLLEMS [RRP6] | 3.42 ± 0.094 | 2.88 ± 0.076 | 3.21 ± 0.058 | 2.95 ± 0.11
TQATSEDGTSASFQIVE [RPC19] | 2.88 ± 0.073 | 3.18 ± 0.079 | 3.05 ± 0.051 | 3.12 ± 0.068
NAVSFDTTFSDFKEVED [SRB4] | 3.13 ± 0.043 | 2.53 ± 0.039 | 2.6 ± 0.039 | 2.74 ± 0.039
ILGDLGKEFGTTPEKPE [FAS2] | 2.83 ± 0.087 | 2.69 ± 0.072 | 2.51 ± 0.057 | 2.78 ± 0.066
YIYSQETKSWINESAEN [MED1] | 2.58 ± 0.047 | 2.66 ± 0.039 | 2.46 ± 0.048 | 2.48 ± 0.031
YWYFLQKLHKVKKASGE [RPL20A] | 3.1 ± 0.093 | 2.86 ± 0.068 | 3.13 ± 0.049 | 2.97 ± 0.063
KDAISFIKEIHKSIELI [YCS4] | 2 ± 0.066 | 2.81 ± 0.065 | 3.17 ± 0.055 | 2.69 ± 0.037
DRVKVIECFKPGDIVRA [CSL4] | 2.66 ± 0.13 | 2.39 ± 0.14 | 2.1 ± 0.18 | 2.36 ± 0.16
QLYFKKKVNYKVTSYDI [ISW2] | 2.63 ± 0.058 | 2.56 ± 0.052 | 2.7 ± 0.07 | 2.72 ± 0.047
KDIKANLSSNVNFTEIG [YCS4] | 2.83 ± 0.043 | 2.74 ± 0.051 | 2.77 ± 0.05 | 2.77 ± 0.039
QAMGVFLTNYNVRMDTM [RPB2] | 3.54 ± 0.19 | 3.14 ± 0.16 | 3.63 ± 0.11 | 3.5 ± 0.14
SFKKIIKFLLTFIDKER [YCS4] | 1.16 ± 0.065 | 1.29 ± 0.11 | 1.19 ± 0.14 | 1.17 ± 0.066
KKSKIQLLDIAEFKKEN [LIN1] | 1.42 ± 0.1 | 2.29 ± 0.13 | 2.44 ± 0.16 | 2.99 ± 0.11
LVDILPPDSDSSISVMG [RPT3] | 2.23 ± 0.068 | 2.27 ± 0.063 | 2.24 ± 0.065 | 2.72 ± 0.055
KLSKSATESIKNRRRIH [SMC1] |  |  |  | 2.62 ± 0.25
TLTKISMLFKTSQKMTS [MCD1] | 1.92 ± 0.082 | 2.83 ± 0.16 | 2.45 ± 0.13 | 3.53 ± 0.19
SKMGAPWCVKPEYLAMY [ITC1] | 2.92 ± 0.057 | 3.23 ± 0.048 | 3.1 ± 0.043 | 3.11 ± 0.058
QLETLTGSIRHRLKLCK [CSE2] | 3.32 ± 0.26 | 3.05 ± 0.17 |  | 2.97 ± 0.21
EDVVAISSRTYGQRAVL [RPS0B] | 3.28 ± 0.12 | 3.03 ± 0.06 | 3.01 ± 0.087 | 3.1 ± 0.049
LLLKKLDNFQKSVEKTM [SMC3] | 2.54 ± 0.2 | 2.74 ± 0.23 | 2.44 ± 0.24 | 2.88 ± 0.17
